Assay results: IntAct's records for PubMed 15522217

B1: Crk-like protein (Homo sapiens), P46109 (parent)
chain: MSSARFDSSDRSAWYMGPVSRQEAQTRLQGQRHGMFLVRDSSTCPGDYVLSVSENSRVSHYIINSLPNRRFKIGDQEFDHLPALLEFYKIHYLDTTTLIEPAPRYPSPPMGSVSAPNLPTAEDNLEYVRTLYDFPGNDAEDLPFKKGEILVIIEKPEEQWWSARNKDGRVGMIPVPYVEKLVRSSPHGKHGNRNSNSYGIPEPAHAYAQPQTTTPLPAVSGSPGAAITPLPSTQNGPVFAKAIQKRVPCAYDKTALALEVGDIVKVTRMNINGQWEGEVNGRKGLFPFTHVKIFDPQNPDENE

Variants of: B1
Details: with insr_human INSR

effect of a mutation on the interaction | Variant
decreasing interaction | H33R;S53P;K72R

Variants of: B1
Details: with insr_human INSR
Remark: another data set of the same source

effect of a mutation on the interaction | Variant
decreasing interaction | H33R;S53P;K72R
